Measurements published in US20160168268A1 (University of California, published 2016).

Target: T1, human IgE (human, UniProt P01854-1 1-428, FITC label in the BMMC experiments)
T1 construct: also called standard IgE; myeloma IgE
Assay: method not stated

T1 sequence (P01854 other isoform, or with tags, fused parts or gaps): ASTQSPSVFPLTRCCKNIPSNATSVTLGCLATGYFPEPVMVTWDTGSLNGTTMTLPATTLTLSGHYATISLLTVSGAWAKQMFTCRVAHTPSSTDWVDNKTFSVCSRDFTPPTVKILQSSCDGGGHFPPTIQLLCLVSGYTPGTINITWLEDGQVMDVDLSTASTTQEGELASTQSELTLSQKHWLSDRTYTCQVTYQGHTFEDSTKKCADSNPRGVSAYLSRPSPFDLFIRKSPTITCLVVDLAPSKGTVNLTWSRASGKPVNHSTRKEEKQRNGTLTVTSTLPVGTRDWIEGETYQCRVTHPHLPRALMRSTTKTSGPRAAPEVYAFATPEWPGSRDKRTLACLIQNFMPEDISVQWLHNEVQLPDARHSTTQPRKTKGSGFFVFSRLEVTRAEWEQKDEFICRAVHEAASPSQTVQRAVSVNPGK

- Kd: 2540 nM
B1: monoclonal anti-human IgE antibody P6.2 (antibody, V domains shown)
VH: QVQLQQSGAELVRPGTSVKVSCKASGYAFTNYLIEWVKQRPGQGLEWIGVINPGSGFTKYNEKFKGKATLTADKSSSTAYMHLSSLTSDDSAVYFCAREDVYSWFAYWGQGTLVTVSA
VL: DIVLTQSPASLAVSLGQRATISCRASESVDSYGNSFMHWYQQKPGQPPKLLIYRTSNLESGIPARFSGSGSRTDFTLTINPVEADDVATYFCQQSYEDPFTFGSGTKLEIK
notes: also called mAb P6.2; mAb 6.2
